Data published in publication PMC13045352, “Mapping Epidermal Growth Factor Receptor‑1 Sorting Domains in Endosomes with a Calibrated Three-Dimensional Expansion Microscopy Toolkit” (ACS Nano, 2026).

Target: the molecule itself
Assay: negative-stain transmission electron microscopy; purified nanocages on glow-discharged carbon film-coated grids, stained with uranyl formate; particle widths measured (mean 28.3 nm)

B1: I3-01_60eGFP monomer of the self-assembling 60-subunit nanocage (one N-terminal eGFP per subunit) (other)
chain: GSGGSGGSGGSGGSGKIEELFKKHKIVAVLRANSVEEAKKKALAVFLGGVHLIEITFTVPDADTVIKELSFLKEMGAIIGAGTVTSVEQCRKAVESGAEFIVSPHLDEEISQFCKEKGVFYMPGVMTPTELVKAMKLGHTILKLFPGEVVGPQFVKAMKGPFPNVKFVPTGGVNLDNVCEWFKAGVLAVGVGSALVKGTPVEVAEKAKAFVEKIRGCTEGSGSGSGSGS
notes: linker between the vector's eGFP and I3-01; begins with the BamHI site GGATCC; I3-01 designed nanocage subunit (David Baker's laboratory); C-terminal linker before the stop codon; Printed molecular weight of the monomer 55.72 kDa; also called 60mer decahedral nanocage; source: HeLa cells, transfected, purified from lysate (centrifugation, 1 MDa spin concentrator); also expressed in RPE-1 cells; …
Does B1 bind?
Result: binds
